test: soluble on expression in E. coli; label from the status in PepcDB or PDB records

Q: Which “soluble on expression in E. coli” value does the source give for “GPGSMQFTVEQIRSVRNNYLEPPYPGFSLDEVVRRRRLTQTKLVRGENAWVAKGTAQTTEEWVQRLLHGTLNKLTEENKDIMIDKLLTKELFATEDIMNMVVNIIFKKALDEPENSKLYAGVCHSLALYEAKVLRDGHKGERPQSQLRDAIISTAQHEFRTLSKELSKMEDKSEEELEYERSNVMRRKRSNMRFIGELYLCTALTHSTMFTVMDLTMRCSDKTGFPSSENIELLAALLNTIGDRLDKNHKKTLDPYFTSLENFNKKSDCPYPPRIRFKIMDLLDLRKRGWGLKPKPVKAALPPSHGKDKKYATAPPPKKGGRDQGSAAAASKSWRDAATTKTGTAAAPAPSADKGLNGRGTSSAAPAANTAALSSSSASTAAATAPAGASFRDEASPQVPLVKFELRVASMFQEWVADRTNDVILHWVDQFNTCDRFFESESELCVAVAQEVIHSACTTTRKDAQREAFSFLVVGLYMIDTEVFDGFASALASAIEDGLLEDVPKFGERFMSMLRLTSTEQETRADVYFDAANVLRLTYNRLESPDDSAVDTLMSFWDRVPLPSTDEENMIRMDLDVVYSLCNPEGVQDGLEKLLSRIIHSMLQMQLMDAEVLDEFLCLDVEDGLCAKVIADYKERFPK” here?
A: soluble

Q: For “GPGSMQPRKTVKKVDVEPSPEEDAELLPHLKVSAKWSERAANNGKSLSQVQFLLGALGKQLEDCNKELASVYANADLLSSLRITEYRQRNTPGGLLTPTRKARTKRNASTRPVARQQLDENSTEALIAAMDEKKRARVTAALIAFFKRDMQEQNSPAYQNASTPVPQGANHSSTRTSQTLGRIPSANSHTMLCESNKGNQPSCSNGNELPTLLSETQQQQLRRHRDIPPELWDEMAKLRLRRLSLEEKIGSLLSNINAQTERFGLLMEVQGVNSYSTESVNRAIEMIRQKRA”, which “soluble on expression in E. coli” value is on record?
A: soluble

Q: With “GPGSMQQSLIPGHNNNRHLTYDEVENNIGGLPVTDNRIQDLFDSLDVDHSGTVSVEVVKKFYMGLEHYGVDLSDKELDEMVRKYAATHDESLSYEEFACFVLSLAQW” as the sequence, how does the “soluble on expression in E. coli” value read?
A: soluble

Q: For “GPGSMQRGFCRVGTVTVSQAQKRAAELINSSDGFCSNVMRTVQFTPTGVKACDGESMGFSWRANQRALNGFRSTHGGALAILADTFTQIHLGAARPAAEFRSVSFEINYLEAIPENAECTCITRIVGDGESDIHHVEYSFQDERRRKVFSRGTHVLSCTK”, which “soluble on expression in E. coli” value is on record?
A: soluble

Q: With “GPGSMRNLVREGITPPVLVFVQSVERSKELYEEIRMEGLHMAIMHAKMTVEQREETVLQFRLGKIWVLVTTELLARGIDFKNVGTVINFDFPATVDSYIHRVGRTGRAGKEGTAITFFTEDDKERLPPIAKVMQDSGNAVEDWILGIKVDRSTRRRLERTTPQRTIVSTRKRMLVAQQRVQRQYRRLEAEKAAKQASKRSKGCGDCDRDDGDDSTDDA” as the sequence, how does the “soluble on expression in E. coli” value read?
A: soluble

Q: For “GPGSMSEKEGKVIPETNGMKRPRFDPVKLGLPEEFTLTDYTRLKGCSCKVPQPELLALLQSVSTTPGRRDVGMDCSIVKLQHKDETGKPLYMVSTTDFFFPSVEDPYLQGQIGAANVLSDLYSTGIDRCDTVLMLLAASTDMDKTEREVCTQEMMKGFVDHVRLAGSDVTGGQTVMNPWPLIGGIATSVVAESQMIRPTGLQPGDILVLTKPLGCQIAVNLKQWLRRPSPIFEEQIQGKMDSEEIEELYNAAADGMKRLNRMAAALMHSHGAHGATDVTGFGILGHAKNLGSAQKADVCLVLDSLPMYRGAVKASKLMGDKYRLFEGYAAETSGGLLVAFGTREEAEGYIRELYETDGEPAWVVGRVVRREGSAPYALLQKDYKIIEVGAKVNDKII”, which “soluble on expression in E. coli” value is on record?
A: soluble

Q: With “GPGSMSESCSGDYYHFVTQRSQAAEITLPIPSFCKPLAASVQPFGEGKAGLLASFFDPEQHAWVVRQLPVQESWSHQPPPSLTVRVATLVDPANLYELRVSLSSVLDGVDNDDLCALQRRSQIYGLVVEEHLADKSGAALRSAGAEGRLPQLREAVTLAAPVDVMNGFVLTGGGFLSDFPVLRDGPALPRSMNTVYDDILAGEDFCGPPMPAGGARFAGTDSAAHTSGGRGSDSPVNSNEPREYTAWSVTAAANAGLACISMGLRRRSPIEWPQLQSESQHTHSASPRERTGPGTSLAISPGPLRAKPPPSVVSDTGALAVYQCTGVPVSGLRPNEHGDGGNGAHGVVSAYSSAAVSTMAARPLLETLTLRGEVDVKLSRRDGEEWGISLPPPHGSLKFSMGPNRELVAAARRYFYCE” as the sequence, how does the “soluble on expression in E. coli” value read?
A: not soluble

Q: With “GPGSMSGIKIEEVISTTKKERVAAHSHVKGLGLNPDGTTKHIADGFVGQEKAREAAGIAVELIRSKKMAGRALLFAGPPGTGKTALALGIAKELGPKVPFCPMVGSEVYSAEVKKTEVLMENFRRAIGLRIKENKEVYEGEVTELRAEETDNPLGGYGKSISHVIITLKSQKGSKLLKLDAAIYESLEKEKVSVGDVIYIEASSGAVKRVGRSDAYIGDHDLEADEYVPIPKGDVHKKKEVIQDVTLHDLDMANAKPSQGQDALSIVSSMMRHKKTEVTEKLRQEINKVVNKYIDQGVAELVPGVLFIDEVHMLDIECFTYLNKALESTLAPVVIFATNRGSCRIRGTEIRAPHGMPTDLLDRLLIIRTMNYDVSEITSIVEIRAHVEGVKISEAALTKLGIIGESTSLRFVVQLLTPALIIAETNGREMLEEEDVDLVAELFKDGKASARQLQDHAEEYVYQ” as the sequence, how does the “soluble on expression in E. coli” value read?
A: soluble

Q: For “GPGSMSKYANPDYWEERYRSNDTTFDWYLTFDNLEPVLRPMLQPAEQIHVLVVGCGNSRLSPCMYEHLNVRKITNVDVSPTVISQMTRRYKGMDEMRWICCDLIHTAPDKLLTLLCPEDALFDFVIDKGLVDATLGGSNSFHNLYTLTKNLARVMKNGGRFLSVSYGAPETRIDHFRRRKLNFDVEHRTIEKSVFASGAAPTGSYHVYIMTKLGERQAVTAGAADDGALSGDTDDDDDFYDRFMTKANTTSADAARFD”, which “soluble on expression in E. coli” value is on record?
A: soluble

Q: For “GPGSMSLASPSSLPPIALATQRLRTFAAQEEQAHGLTTSTALEEWATQSFEAETERINRELVQRRSQASVTFLPALYMRGRDPAADETTRLLHSTCKAFELDLRFKEIEKLDEMHAHLWTLLSAGDRTSISMEAYEQLLHDFNEWAAEHYGAQLLPPPSTVWDVSEDEDECILCRREVKEDDHEKSGGGNSSPSMSPLRPPVSLARPLSASTPPVLAATKAAPNDAPFTSGTRGASWDAVLQHVKRYRDQQRSDTSASASSFMRSHAHFEHLLRLAEDQPALGNVLYLCSVPPPRPDVQLFLSCPRNAERAVEIAAIYQTFAKQVSLVKCEAELIMWDSNNDGRLSEDEVENYVRDLAPRIAALQAMSKDMLPFYCCTVSRRLFWDLDPGNRGVLRIHSLLHSGIMDEWVSLQLMTEDDTQNWFGALVTQQLYNKFVLLDTRNTGTLNVENLRGYKKGLPTVLDDGLPPDVSPLCSLFIDRYFETNTLMTRSEMDYRKFVDFVIAVELLPQCSRPYFFWNILDMEGTGVLTPMIVNQFFRETHAKLVAAGLDVPSRETVVQEVFDLIEKAESLLITRDEFVRSPQAGLFVALLIDCLSFWTYENREQR”, which “soluble on expression in E. coli” value is on record?
A: not soluble

Q: With “GPGSMSRTQTSSKSVPKNIAVYCRVRPPVPNEKGHTFQNISYDDSDSRAIAVARKSGTKALEKTYLFNRVFRPTATQKDVYETFAKGAVDAAFDGQHGVLFVYGQTGSGKTFTISNDEPNNEGVLQRSMRDIWNRIASDTANDYSCSVSYVQLYNEILTDLLDDAKGKVRIQMGSEGRGDVVMVSDSTGMAIEREVKDYKSTMACFQVGLARKEMASTSMNSTSSRSHTIFTLNIVKAKKVVAVTVGTEAEGPTIALEGRLVLCDLAGSERVSKTHAEGKTLDEATHINRSLLTLGKVVTALTDNAQHAPFRESKLTRILQYSLMGNGNTSIIVNISPSDDNTEESLSAILFGQRASQIKQDAKRHEVLDYKALYMQLMAELDNKNDKTLEEALEEERGVYEERISALDEEMKLLSDENAMLRNENKQLRQYVPADRLKLIDETPSSGVSGANGEVVSGGWAKVNQDLRKLVQQRDERLKVISDERVRLALVVAEEKRKCFQLAQKMRSFAMRYKMEREQSTQRQEELCTELATLKGTDYLSAVGSFDATASPGSPNYPRENEEFNDAESAQAQIRALRAERMELMVYQAKAANAIRKLVKERDAAQRKVA” as the sequence, how does the “soluble on expression in E. coli” value read?
A: soluble

Q: Which “soluble on expression in E. coli” value does the source give for “GPGSMTAAVDLEGVALHGHMKGVTMLKFNRDGDLLFSSAKDTNCSACCWQVKTGKLFGSYTTVGQVEGRTYDAAMVALDVNRESTLLATASAGEEVLLWSVESGALLGSVSRSLSSGASVGFSHDDTLMMVATKGRSSTNSAIQVYNVPFTVPKAGEDIAPVKTPFTTFSTFETPDTITWAAWGPTNETIYYSEGGYMNILDVEANKVIRSRQIHEDENEVINRFSWDPNYLALATASTDKTSHLIDFRDLATIQVYRSDVPVNDVSISPNADHVILGGGMDAASVTTQGGQSIFEVKFFHKVHGHQLGQLRCHFGTINAMSFHPDGRGFASASYDGLIKMYRFGDSYDSTPGAQPLWTL” here?
A: not soluble

Q: With “GPGSMTAVSNAAAVQATSGANGGSAVVTFFTTTYSKPMPEQSFSVPLNVLPDGLNQLVQNVLGVEGQNFDFLYKDEYIGTTLFRFLQRRGISCEELLNIEYTPALQAKEGNLLPHDDWVSSVRAPYRNNAELLLTGSYDHCVRLWDGDSCLALGSFHREAVKEVALHPVAPASSKTGRKRTRLDGDFMFASASKDGSVAAWKLDSTSSHMQLLGSIQAHTDGVDSVAIAPGDGRLVATASWDTTVKVFNWEQMMEGDTVPSKKAPLVTFTDHSRPVLCSRFSAAHGAARLYSAGYDGHIKCLDTEAAQLQSQFKGDHPINRISVKPAGSSPAADLLLSACTDNRARLFDTRQKDVVKTFSGSCQWLYSVVWLWDAQEGDAEHSGGSLFAVASEDATVRVYDLRCTNTALLTLDAMHTDGVLDVTYVGQSIIASGGKDNKTRSFALSKEGLLS” as the sequence, how does the “soluble on expression in E. coli” value read?
A: not soluble

Q: For “GPGSTGASLGMMWKDKLNAMTKEEFTRYKRAGVMETDRKEARDYLKRGDGKTGLSVSRGTAKLAWMEERGYVELTGRVVDLGCGRGGWSYYAASRPHVMDVRAYTLGVGGHEVPRITESYGWNIVKFKSRVDIHTLPVERTDVIMCDVGESSPKWSVESERTIKILELLEKWKVKNPSADFVVKVLCPYSVEVMERLSVMQRKWGGGLVRNPYSRNSTHEMYFTSRAGGNIIGAVTACTERLLGRMARRDGPVVVPELNLGTGTR”, which “soluble on expression in E. coli” value is on record?
A: soluble

Q: Which “soluble on expression in E. coli” value does the source give for “GPHMDAATLTYDTLRFAEFEDFPETSEPVWILGRKYSIFTEKDEILSDVASRLWFTYRKNFPAIGGTGPTSDTGWGCMLRCGQMIFAQALVCRHLGRDWRWTQRKRQPDSYFSVLNAFIDRKDSYYSIHQIAQMGVGEGKSIGQWYGPNTVAQVLKKLAVFDTWSSLAVHIAMDNTVVMEEIRRLCRTSVPCAGATAFPADSDRHCNGFPAGAEVTNRPSPWRPLVLLIPLRLGLTDINEAYVETLKHCFMMPQSLGVIGGKPNSAHYFIGYVGEELIYLDPHTTQPAVEPTDGCFIPDESFHCQHPPCRMSIAELDPSIAVGFFCKTEDDFNDWCQQVKKLSLLGGALPMFELVEQQPSHLACPDVLNLSLDSSDVERLERFFDSEDEDFEILSL” here?
A: soluble

Q: For “GPLGSCSSPQVEIPTTYSPEKIAQLQVYVNPIAVARDGMEKRLQGLIADQNWVDTQTYIHGPLGQLRRDMLGLASSLLPKDQDKAKTLAKEVFGHLERLDAAAKDRNGSQAKIQYQEALADFDSFLNLLPQAS”, which “soluble on expression in E. coli” value is on record?
A: soluble

Q: With “GPLGSKEQGVVRKAGWLFFKPLVTLQKERKLELVARRKWKQYWVTLKGCTLLFYETYGKNSTEQNSAPRCALFAEDSIVQSVPEHPKKEHVFCLSNSCGDVYLFQATSQTDLENWVTAIHSACASLFAKKHGKEDTVRLLKSQTRSLLQKIDMDSKMKKMAELQLSVVSDPKNRKAIENQIRQWEQNLEKFHMDLFRMRCYLASLQGGELPNPKSLLAATSRPSKLALGRLGVLSVSSFHALVCSRDDSTLRKRTLSLTQRGK” as the sequence, how does the “soluble on expression in E. coli” value read?
A: soluble

Q: With “GPLGSMDQSVAIQETLVEGEYCVIAVQGVLCKGDSRQSRLLGLVRYRLENDAQEHALFLYTHRRMAITGDDVSLDQIVPLSKDFMLEEVSPDGELYILGSDVTVQLNTAELKLVFQLPFGSHTRTFLQEVARACPGFDPETRDPEFEWLSRHTCAEPDAES” as the sequence, how does the “soluble on expression in E. coli” value read?
A: soluble

From the DeepSol protein solubility set
